For three molecules, Kd, dH and stoichiometry N results are on record in PMC11117474.

One assay concerns the target NUPR1 (Homo sapiens) (UniProt O60356). The note with it: cited from earlier work.
Assay [1] concerns the target RYBP (RING1A and YY1 binding protein) (UniProt Q8N488). The assay is described as follows: other fluorescence titration; ARM-PKP1 0-20 uM added to fixed RYBP 4.6 uM; 25 °C; 20 mM Tris pH 7.5, 5 mM TCEP, 150 mM NaCl; fluorescence at 330 nm; fit with ligand depletion.
The target of assay [2] is armadillo-repeat domain of plakophilin 1 (ARM-PKP1). As to the kind of experiment: ITC; RYBP (100 uM) in the syringe titrated into ARM-PKP1 (10 uM) in the cell; 25 °C; 20 mM Tris pH 7.5, 5 mM TCEP, 150 mM NaCl; single binding site model.

UniProt O60356, sequence (O60356 whole entry): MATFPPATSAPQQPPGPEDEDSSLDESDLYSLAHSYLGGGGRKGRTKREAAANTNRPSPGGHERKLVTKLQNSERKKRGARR

Regarding “Plakophilin 1 ARM domain (from UniProt Q13835)”, the dissociation constant (Kd) (usually the constant that tells how readily two partners part at equilibrium) with NUPR1 (Homo sapiens) was 10 µM.

For the molecule “armadillo-repeat domain of plakophilin 1 (ARM-PKP1) (domain or fragment)”, in assay [1], the Kd is 9 µM.

B1: RYBP (RING1A and YY1 binding protein) (natural protein)
chain: MTMGDKKSPTRPKRQAKPAADEGFWDCSVCTFRNSAEAFKCSICDVRKGTSTRKPRINSQLVAQQVAQQYATPPPPKKEKKEKVEKQDKEKPEKDKEISPSVTKKNTNKKTKPKSDILKDPPSEANSIQSANATTKTSETNHTSRPRLKNVDRSTAQQLAVTVGNVTVIITDFKEKTRSSSTSSSTVTSSAGSEQQNQSSSGSESTDKGSSRSSTPKGDMSAVNDESF
With B1, in assay [2], the Kd came to 12 µM; the dH was -11.9 kcal/mol; the stoichiometry N (as a rule, a count of units in the complex or per binding partner) was found to be 1.
